In paper PMC3115958 (2011):

Target: wild type sortilin expressed in COS-7 cells (UniProt Q99523 78-831)
Sequence (Q99523 78-831): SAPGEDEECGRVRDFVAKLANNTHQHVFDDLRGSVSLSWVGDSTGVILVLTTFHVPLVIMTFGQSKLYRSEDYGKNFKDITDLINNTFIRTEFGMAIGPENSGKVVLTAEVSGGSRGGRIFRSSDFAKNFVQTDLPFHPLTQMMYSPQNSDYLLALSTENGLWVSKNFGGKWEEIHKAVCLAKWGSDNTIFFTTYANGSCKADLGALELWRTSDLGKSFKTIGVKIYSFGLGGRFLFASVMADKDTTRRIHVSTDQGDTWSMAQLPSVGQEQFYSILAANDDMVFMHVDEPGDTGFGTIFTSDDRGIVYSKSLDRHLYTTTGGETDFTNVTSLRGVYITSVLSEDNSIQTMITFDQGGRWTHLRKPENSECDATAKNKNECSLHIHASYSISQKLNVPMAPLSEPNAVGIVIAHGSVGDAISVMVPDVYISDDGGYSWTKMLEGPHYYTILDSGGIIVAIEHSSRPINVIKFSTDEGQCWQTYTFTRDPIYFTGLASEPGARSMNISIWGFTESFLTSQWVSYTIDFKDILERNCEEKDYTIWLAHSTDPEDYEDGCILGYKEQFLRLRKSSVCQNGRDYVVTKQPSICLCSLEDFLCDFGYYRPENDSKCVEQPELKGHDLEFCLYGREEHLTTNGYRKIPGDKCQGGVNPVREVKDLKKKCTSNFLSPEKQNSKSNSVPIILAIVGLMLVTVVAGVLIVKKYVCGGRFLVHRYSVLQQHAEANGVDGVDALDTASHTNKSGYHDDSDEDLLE

Kd: 3 nM
B1: alkaline phosphatase tagged progranulin C100 (granulin E and its flanking region, aa 494-593) (domain or fragment)
chain: SCEKEVVSAQPATFLARSPHVGVKDVECGEGHFCHDNQTCCRDNRQGWACCPYRQGVCCADRRHCCPAGFRCAARGTKCLRREAPRWDAPLRDPALRQLL
